Molecular target: horseradish peroxidase-conjugated IgG (Wako Pure Chemical Industries, Ltd.)
Test: protein A immobilized on a platinum microelectrode (-100 mV), incubated with 0.5 mg/ml HRP-conjugated IgG, peroxidase luminescence read by luminometer

amount of luminescence: 1.4e+10 cps
Substance: polyhistidine-fused protein A

Reference: patent US20080096219A1
